Data: paper PMC8319318 (2021)

Biological target: actin filament (skeletal muscle actin) (Oryctolagus cuniculus, UniProt P68135)
Experiment: TIRF microscopy (steady-state fluorescence density)

B1: anillin (protein)
chain: MDPFTEKLLERTRARRENLQRKMAERPTAAPRSMTHAKRARQPLSEASNQQPLSGGEEKSCTKPSPSKKRCSDNTEVEVSNLENKQPVESTSAKSCSPSPVSPQVQPQAADTISDSVAVPASLLGMRRGLNSRLEATAASSVKTRMQKLAEQRRRWDNDDMTDDIPESSLFSPMPSEEKAASPPRPLLSNASATPVGRRGRLANLAATICSWEDDVNHSFAKQNSVQEQPGTACLSKFSSASGASARINSSSVKQEATFCSQRDGDASLNKALSSSADDASLVNASISSSVKATSPVKSTTSITDAKSCEGQNPELLPKTPISPLKTGVSKPIVKSTLSQTVPSKGELSREICLQSQSKDKSTTPGGTGIKPFLERFGERCQEHSKESPARSTPHRTPIITPNTKAIQERLFKQDTSSSTTHLAQQLKQERQKELACLRGRFDKGNIWSAEKGGNSKSKQLETKQETHCQSTPLKKHQGVSKTQSLPVTEKVTENQIPAKNSSTEPKGFTECEMTKSSPLKITLFLEEDKSLKVTSDPKVEQKIEVIREIEMSVDDDDINSSKVINDLFSDVLEEGELDMEKSQEEMDQALAESSEEQEDALNISSMSLLAPLAQTVGVVSPESLVSTPRLELKDTSRSDESPKPGKFQRTRVPRAESGDSLGSEDRDLLYSIDAYRSQRFKETERPSIKQVIVRKEDVTSKLDEKNNAFPCQVNIKQKMQELNNEINMQQTVIYQASQALNCCVDEEHGKGSLEEAEAERLLLIATGKRTLLIDELNKLKNEGPQRKNKASPQSEFMPSKGSVTLSEIRLPLKADFVCSTVQKPDAANYYYLIILKAGAENMVATPLASTSNSLNGDALTFTTTFTLQDVSNDFEINIEVYSLVQKKDPSGLDKKKKTSKSKAITPKRLLTSITTKSNIHSSVMASPGGLSAVRTSNFALVGSYTLSLSSVGNTKFVLDKVPFLSSLEGHIYLKIKCQVNSSVEERGFLTIFEDVSGFGAWHRRWCVLSGNCISYWTYPDDEKRKNPIGRINLANCTSRQIEPANREFCARRNTFELITVRPQREDDRETLVSQCRDTLCVTKNWLSADTKEERDLWMQKLNQVLVDIRLWQPDACYKPIGKP
modifications: anillin C-terminal GFP tag; F-actin stabilised with biotin-phalloidin
Binder B1 has a Kd of 7.82 nM.
